The values below come from patent EP4714970A1 (Akeso Biopharma Co., Ltd., dated 2026).

For assay [1], the target named is T1, CD73 on U87-MG cell membrane surface (UniProt P21589 27-549, limits assumed).
T1 sequence (looked up): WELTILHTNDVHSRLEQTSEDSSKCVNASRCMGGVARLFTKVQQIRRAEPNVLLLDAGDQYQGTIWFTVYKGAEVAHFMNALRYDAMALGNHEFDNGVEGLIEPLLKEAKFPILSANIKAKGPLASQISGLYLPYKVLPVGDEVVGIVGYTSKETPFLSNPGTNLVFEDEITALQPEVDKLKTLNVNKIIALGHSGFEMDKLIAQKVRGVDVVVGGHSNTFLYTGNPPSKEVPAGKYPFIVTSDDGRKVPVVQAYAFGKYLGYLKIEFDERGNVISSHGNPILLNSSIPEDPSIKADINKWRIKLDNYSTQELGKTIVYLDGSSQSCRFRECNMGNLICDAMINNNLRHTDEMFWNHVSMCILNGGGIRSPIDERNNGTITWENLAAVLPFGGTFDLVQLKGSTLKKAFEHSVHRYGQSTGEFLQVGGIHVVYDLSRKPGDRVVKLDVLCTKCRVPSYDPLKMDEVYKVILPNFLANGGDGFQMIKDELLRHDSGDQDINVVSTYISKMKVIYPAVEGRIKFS
Description: cell-based or functional assay.

The target in assay [2] is T1, CD73 on U87-MG cell membrane surface. Briefly: flow cytometry on U87-MG cells.
The target in assay [3] is T2, hNT5E(1-552)-His (human, UniProt P21589 27-552).
T2 construct: also called NT5E-His; not shown: His tag
T2 sequence (looked up): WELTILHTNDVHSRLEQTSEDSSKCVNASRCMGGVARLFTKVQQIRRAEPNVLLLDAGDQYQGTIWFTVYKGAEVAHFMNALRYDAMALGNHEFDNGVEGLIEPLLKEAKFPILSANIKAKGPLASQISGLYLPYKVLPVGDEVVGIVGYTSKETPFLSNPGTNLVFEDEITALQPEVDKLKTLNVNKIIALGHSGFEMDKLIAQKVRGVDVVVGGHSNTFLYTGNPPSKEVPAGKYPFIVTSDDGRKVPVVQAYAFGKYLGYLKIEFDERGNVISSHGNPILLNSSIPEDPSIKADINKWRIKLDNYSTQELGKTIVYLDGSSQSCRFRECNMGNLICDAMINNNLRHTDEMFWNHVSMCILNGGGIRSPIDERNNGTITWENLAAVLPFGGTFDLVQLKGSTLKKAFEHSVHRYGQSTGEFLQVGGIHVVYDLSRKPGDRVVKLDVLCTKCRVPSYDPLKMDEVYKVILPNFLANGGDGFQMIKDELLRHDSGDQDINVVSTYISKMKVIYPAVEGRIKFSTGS
Description: ELISA, NT5E-His coated 1 ug/mL. On the technique in general: An ELISA detects its analyte on a solid surface through an enzyme-linked reagent.

Assay [4] concerns the target T2, hNT5E(1-552)-His. Description: ELISA, NT5E-His coated 1 ug/mL. This is another data set of the same source.
Assay [5] addresses T2, hNT5E(1-552)-His. Description: BLI (Fortebio), antigen on HIS1K sensor, antibody in solution, 37 C, 1:1 fit.
The target in assay [6] is T2, hNT5E(1-552)-His. Description: ELISA, NT5E-His coated 1 ug/mL. The source holds these as a separate data set.
Assay [7] addresses T3, human LAG3 on cell surface (293T-LAG3 cells; Jurkat-NFAT-PD1-LAG3 cells) (human, UniProt P18627 23-525).
T3 construct: whole, on cells; also called huLAG3FL
T3 sequence (looked up): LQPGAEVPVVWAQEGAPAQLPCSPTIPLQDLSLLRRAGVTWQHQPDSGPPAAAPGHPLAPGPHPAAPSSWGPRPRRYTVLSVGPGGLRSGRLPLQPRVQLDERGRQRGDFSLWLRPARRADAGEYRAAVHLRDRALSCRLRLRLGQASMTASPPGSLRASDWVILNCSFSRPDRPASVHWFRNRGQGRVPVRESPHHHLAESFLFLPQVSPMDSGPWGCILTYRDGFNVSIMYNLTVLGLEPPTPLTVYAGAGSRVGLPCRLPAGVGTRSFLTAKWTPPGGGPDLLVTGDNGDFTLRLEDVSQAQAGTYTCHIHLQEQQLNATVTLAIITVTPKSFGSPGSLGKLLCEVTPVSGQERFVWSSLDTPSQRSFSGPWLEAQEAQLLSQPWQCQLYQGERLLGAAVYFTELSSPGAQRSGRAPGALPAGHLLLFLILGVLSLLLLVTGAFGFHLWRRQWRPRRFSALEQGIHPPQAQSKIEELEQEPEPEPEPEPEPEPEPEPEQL
Briefly: flow cytometry on 293T-LAG3 cells. (In general: Flow cytometry measures light scatter and fluorescence of single cells or particles in a stream.)

Assay [8] deals with T4, human LAG3-mG1Fc (human; mouse, UniProt P18627 23-450, limits assumed).
T4 construct: Made by Akeso; also called huLAG3-mG1Fc; HuLAG3-mG1Fc; not shown: mouse IgG1 Fc (mG1Fc); limits not readable
T4 sequence (looked up): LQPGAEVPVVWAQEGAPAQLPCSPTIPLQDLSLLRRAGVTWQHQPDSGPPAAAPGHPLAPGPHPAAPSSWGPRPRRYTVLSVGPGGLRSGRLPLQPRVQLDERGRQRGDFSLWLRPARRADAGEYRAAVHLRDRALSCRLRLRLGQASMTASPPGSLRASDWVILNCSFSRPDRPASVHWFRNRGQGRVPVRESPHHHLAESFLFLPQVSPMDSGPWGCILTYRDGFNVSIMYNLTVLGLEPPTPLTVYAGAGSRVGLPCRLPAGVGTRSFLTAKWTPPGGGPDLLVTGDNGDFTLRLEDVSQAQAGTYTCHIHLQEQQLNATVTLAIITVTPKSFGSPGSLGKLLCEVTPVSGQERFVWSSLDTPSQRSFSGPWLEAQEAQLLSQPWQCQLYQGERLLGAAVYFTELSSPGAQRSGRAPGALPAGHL
Description: competitive flow cytometry, 3 nM LAG3-mG1Fc on Raji cells (competitor MHC II).

Assay [9] addresses T4, human LAG3-mG1Fc. Description: BLI (Fortebio), antigen on AMC sensor, antibody in solution, 30 C, 1:1 fit.
Assay [10] addresses T3, human LAG3 on cell surface (293T-LAG3 …). Briefly: flow cytometry on 293T-LAG3 cells. The source holds these as a separate data set.
Assay [11] has as its target T4, human LAG3-mG1Fc. Briefly: competitive flow cytometry, 3 nM LAG3-mG1Fc on Raji cells (competitor MHC II). The source holds these as a separate data set.
Assay [12] deals with T4, human LAG3-mG1Fc. Briefly: ELISA, LAG3-mG1Fc coated 2 ug/mL.

Changes are numbered by the printed parent chain. In names and notes the source's numbering stands. Like-named read-outs stand apart in the source and are kept apart here.

B1: MEDI9447 (antibody, V domains shown)
VH: EVQLLESGGGLVQPGGSLRLSCAASGFTFSSYAYSWVRQAPGKGLEWVSAISGSGGRTYYADSVKGRFTISRDNSKNTLYLQMNSLRAEDTAVYYCARLGYGRVDEWGRGTLVTVSS
VL: QSVLTQPPSASGTPGQRVTISCSGSLSNIGRNPVNWYQQLPGTAPKLLIYLDNLRLSGVPDRFSGSKSGTSASLAISGLQSEDEADYYCATWDDSHPGWTFGGGTKLTVL
On to B1, for which, in [1], the “EC50 (nM), inhibition of CD73 enzyme activity on U87-MG cells” value stood at 0.152 nM and the “Maximum inhibition rate (%) of CD73 enzyme activity on U87-MG cells” value was 58.3%.

B2: CPI-006 (antibody, V domains shown)
VH: QVQLVQSGAEVEKPGASVKVSCKASGYTFTSYWITWVRQAPGQGLEWMGDIYPGSGNTNYNEKFKTRVTITADKSTSTAYMELSSLRSEDTAVYYCAKEGGLTTEDYALDYWGQGTLVTVSS
VL: EIVLTQSPATLSLSPGERATLSCRASKNVSTSGYSYMHWYQQKPGQAPRLLIYLASNLESGIPPRFSGSGYGTDFTLTINNIESEDAAYYFCQHSRELPFTFGQGTKVEIKR
Turning to B2, the EC50 in assay [2] is 8.47 nM.

B3: 19F3H2L3(hG1DM) (antibody, human IgG1, kappa, L234A L235A, V domains shown)
VH: QVQLVQSGAEVVKPGASVKVSCKASGYSFTGYTMNWVRQAPGQNLEWIGLINPYNAGTSYNQKFQGKVTLTVDKSTSTAYMELSSLRSEDTAVYYCARSEYRYGGDYFDYWGQGTTLTVSS
VL: DIVMTQSPSSLAVSVGERVTISCKSSQSLLNSSNQKNYLAWYQQKPGQAPKLLIYFASTRESGVPDRFSGSGSGTDFTLTISSLQAEDVAVYYCQQHYDTPYTFGGGTKLEIKR
notes: Humanized anti-CD73 IgG1 with L234A/L235A
Take B3: the EC50 turned out to be 0.011 nM with hNT5E(1-552)-His [3], 0.011 nM with hNT5E(1-552)-His [4], 0.015 nM in the assay with hNT5E(1-552)-His [6] and 6.06 nM in [2]. The Kd in the assay with hNT5E(1-552)-His [5] was found to be 0.505 nM. For the same molecule, the “Maximum signal height of analyte (nm)” value with hNT5E(1-552)-His [5] amounted to 0.168 nm. Further, the “S E (kdis)” value with hNT5E(1-552)-His [5] was found to be 3.54e-06 s⁻¹.

B4: H9L8(hG4WT) (antibody, human IgG4 S228P, kappa, V domains shown)
VH: QVQLQQWGAGLLKPSETLSLTCAVYGGSISDYYWNWIRQPPGKGLEWIGEINYRGTTNSNPSLKSRVTLSLDTSKNQFSLKLRSVTAADTAVYYCAFGYSDYEYDWFDPWGQGTLVTVSS
VL: EIVLTQSPATLSLSPGERATLSCRASQTISSYLAWYQQKPGQAPRLLIYDASNRATGIPARFSGSGSGTDFTLTISSLEPEDFAVYYCQQRSNWPITFGQGTNLEIKR
notes: Humanized anti-LAG3 IgG4 (wild type), kappa
B4 showed an EC50 in [7] of 4.86 nM. Also, the concentration giving a half-maximal response (EC50) with human LAG3-mG1Fc [8] came to 1.44 nM. Moreover, in the assay with human LAG3-mG1Fc [9], binding was put at a Kd of 0.3 nM, the “Maximum signal height of analyte (nm)” value turned out to be 0.878 nm, the “S E (kdis)” value stood at 2.94e-06 s⁻¹ and the “S E (kon)” value is 2330 M⁻¹ s⁻¹. In the assay with human LAG3-mG1Fc [9], this molecule had a koff of 0.000121 s⁻¹ and a kon of 405000 M⁻¹ s⁻¹. Moreover, the EC50 in [10] came to 0.501 nM. In the assay with human LAG3-mG1Fc [11], this molecule came in with an EC50 of 1.46 nM. The EC50 with human LAG3-mG1Fc [12] stood at 0.123 nM.

B5: H9L10(hG4WT) (antibody, human IgG4 S228P, kappa, V domains shown)
VH: B4 VH
VL: B4 VL with T28S, A51G
notes: Humanized anti-LAG3 IgG4 (wild type), kappa; also called HIL10(hG4WT)
In the case of B5, the EC50 in [7] worked out at 3.92 nM; in the assay with human LAG3-mG1Fc [11], 1.44 nM; with human LAG3-mG1Fc [12] it was 0.14 nM.

B6: H9L9(hG4WT) (antibody, human IgG4 S228P, kappa, V domains shown)
VH: B4 VH
VL: B4 VL with A51G, I96L
notes: as for B4
On to B6, for which the results for the 50% effective concentration (EC50) (in assay [7]; with human LAG3-mG1Fc [11]; in the assay with human LAG3-mG1Fc [12]) were 4.53 nM, 1.48 nM and 0.129 nM, respectively.

One may read the EC50 as the concentration that produces a half-maximal response. Broadly, the Kd is the free concentration of one partner at which half of the binding sites on the other are occupied at equilibrium, for simple one-to-one binding. High values mean a looser complex, low ones a tighter complex. Broadly, the koff is the rate constant with which the complex falls apart. Read a high koff as fast dissociation. The term kon denotes the second-order rate constant of association. Low values mean slow association, high ones fast association.
